The text below walks through data of patent EP4778941A1 (Jiangsu Hengrui Pharmaceuticals Co., Ltd., dated 2025).

Assay [1] addresses Human HER3 and MET proteins together on HER3/MET double-positive cells (human, UniProt P21860 20-1342; P08581 25-1390). The experiment in a line: cell-based or functional assay.
The target of assay [2] is T1, Human MET protein on the cell surface (human, UniProt P08581 25-1390).
T1 construct: whole, on cells; also called MET single-positive cells (NCI-H1975, NCI-H1703)
Put plainly: FACS on NCI-H1975 cells (MET single-positive), FIG. 3.

Assay [3] deals with T2, His-tagged human HER3 antigen (human, UniProt P21860 20-643).
T2 construct: Soluble antigen used as analyte in SPR; not shown: His tag
Put plainly: SPR, Biacore 8K, protein A chip; ADC captured, His-tagged antigen 6.25-400 nM as analyte; 1:1 Langmuir. For orientation: SPR reads the build-up and loss of mass on a sensor chip optically.

T1 sequence (P08581 25-1390): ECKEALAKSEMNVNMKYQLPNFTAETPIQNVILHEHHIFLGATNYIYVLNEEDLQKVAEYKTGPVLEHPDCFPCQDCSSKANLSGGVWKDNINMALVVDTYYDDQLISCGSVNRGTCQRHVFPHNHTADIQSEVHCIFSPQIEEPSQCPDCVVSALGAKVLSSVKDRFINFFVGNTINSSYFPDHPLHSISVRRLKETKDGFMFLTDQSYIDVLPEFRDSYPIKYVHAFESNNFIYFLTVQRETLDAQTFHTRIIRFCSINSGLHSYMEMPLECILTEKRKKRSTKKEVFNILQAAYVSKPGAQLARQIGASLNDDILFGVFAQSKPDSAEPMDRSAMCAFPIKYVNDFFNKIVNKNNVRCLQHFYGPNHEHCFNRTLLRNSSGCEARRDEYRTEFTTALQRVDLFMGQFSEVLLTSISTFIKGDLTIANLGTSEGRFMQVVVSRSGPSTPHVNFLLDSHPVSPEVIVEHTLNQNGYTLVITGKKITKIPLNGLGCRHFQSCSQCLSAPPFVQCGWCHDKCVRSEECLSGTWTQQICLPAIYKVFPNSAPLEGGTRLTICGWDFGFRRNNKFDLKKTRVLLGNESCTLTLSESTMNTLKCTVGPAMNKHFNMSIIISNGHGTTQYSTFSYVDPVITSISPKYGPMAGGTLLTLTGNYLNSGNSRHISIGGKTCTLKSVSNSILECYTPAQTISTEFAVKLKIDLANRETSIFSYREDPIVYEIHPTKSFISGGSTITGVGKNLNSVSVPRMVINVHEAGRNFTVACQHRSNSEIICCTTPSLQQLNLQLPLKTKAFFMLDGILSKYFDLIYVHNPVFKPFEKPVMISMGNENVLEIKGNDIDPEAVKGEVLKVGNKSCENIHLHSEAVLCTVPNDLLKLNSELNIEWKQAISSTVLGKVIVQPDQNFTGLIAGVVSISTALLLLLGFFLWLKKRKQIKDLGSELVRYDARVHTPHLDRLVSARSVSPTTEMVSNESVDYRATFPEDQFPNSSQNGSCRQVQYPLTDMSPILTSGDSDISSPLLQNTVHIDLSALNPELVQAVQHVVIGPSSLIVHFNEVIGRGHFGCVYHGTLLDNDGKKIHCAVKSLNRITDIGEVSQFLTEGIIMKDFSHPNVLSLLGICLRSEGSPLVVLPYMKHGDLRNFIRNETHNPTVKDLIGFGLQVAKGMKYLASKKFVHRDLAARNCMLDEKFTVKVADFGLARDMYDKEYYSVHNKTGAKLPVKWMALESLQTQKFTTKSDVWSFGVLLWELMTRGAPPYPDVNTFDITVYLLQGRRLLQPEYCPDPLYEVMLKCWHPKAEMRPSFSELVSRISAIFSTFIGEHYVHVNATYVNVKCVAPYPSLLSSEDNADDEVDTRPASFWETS

B1: Anti-HER3/MET bispecific antibody P3-A (bispecific antibody, human IgG1, kappa)
heavy 1: not shown
light 1: QAVLTQPSSVSGAPGQRVTISCTGSSSNIGAGYDVHWYQQLPGTAPKLLIYGNSNRPSGVPDRFSGSKSGTSASLAITGLQAEDEADYYCQSYDSSLSGVFGTGTQLTVLGGGGSGIPPKIECLPIDISIDEGKVLTVASAFTGEPTPEVTWSTGGRKIHSQEQGRFHIENTDDSTTLTIKDVQKQDGGLYTLTLRNEFGSDSATVNIHIRSI
heavy 2: QVQLVQSGGGLVQPGRSLRLSCAASGFTFDDYAMHWVRQAPGKGLEWVSGISWNSGSIGYADSVKGRFTISRDNAKNSLYLQMNSLRAEDTALYYCAKEGLPGLDYWGQGTLVTVSSASTKGPSVFPLAPSSKSTSGGTAALGCLVKDYFPEPVTVSWNSGALTSGVHTFPAVLQSSGLYSLSSVVTVPSSSLGTQTYICNVNHKPSNTKVDKKVEPKSCDKTHTCPPCPAPELLGGPSVFLFPPKPKDTLMISRTPEVTCVVVDVSHEDPEVKFNWYVDGVEVHNAKTKPREEQYNSTYRVVSVLTVLHQDWLNGKEYKCKVSNKALPAPIEKTISKAKGQPREPQVCTLPPSREEMTKNQVSLSCAVKGFYPSDIAVEWESNGQPENNYKTTPPVLDSDGSFFLVSKLTVDKSRWQQGNVFSCSVMHEALHNHYTQKSLSLSPGK
light 2: DIQMTQSPSSLSASIGDRATITCRASQHVGTYLNWYQQKPGKTPKLLISGAANLQSGVPSRFSGSGSGTDFTLTISSLQPEDFATYYCQQSYNTPPFSFGQGTKVEIKRTVAAPSVFIFPPSDEQLKSGTASVVCLLNNFYPREAKVQWKVDNALQSGNSQESVTEQDSKDSTYSLSSTLTLSKADYEKHKVYACEVTHQGLSSPVTKSFNRGEC
Take B1: in assay [1], the “Minimum cell viability (%)” value was determined as 16.4%. In addition, the binding result in assay [2] is reported as “binds”.

B2: Anti-HER3/MET antibody-drug conjugate ADC-2 (bispecific antibody, human IgG1, kappa)
heavy 1: not shown
light 1: DIVLTQSPDSLAVSLGERATINCRADKSVSTSTYNYLHWYQQKPGQPPKLLIYLASNLASGVPDRFSGSGSGTDFTLTISSLQAEDVAVYYCQHSRDLPPTFGQGTKLEIKGGGGSGIPPKIECLPIDISIDEGKVLTVASAFTGEPTPEVTWSTGGRKIHSQEQGRFHIENTDDSTTLTIKDVQKQDGGLYTLTLRNEFGSDSATVNIHIRSI
heavy 2: QVQLVQSGGGLVQPGRSLRLSCAASGFTFDDYAMHWVRQAPGKGLEWVSGISWNSGSIGYADSVKGRFTISRDNAKNSLYLQMNSLRAEDTALYYCAKEGLPGLDYWGQGTLVTVSSASTKGPSVFPLAPSSKSTSGGTAALGCLVKDYFPEPVTVSWNSGALTSGVHTFPAVLQSSGLYSLSSVVTVPSSSLGTQTYICNVNHKPSNTKVDKKVEPKSCDKTHTCPPCPAPELLGGPSVFLFPPKPKDTLMISRTPEVTCVVVDVSHEDPEVKFNWYVDGVEVHNAKTKPREEQYNSTYRVVSVLTVLHQDWLNGKEYKCKVSNKALPAPIEKTISKAKGQPREPQVCTLPPSREEMTKNQVSLSCAVKGFYPSDIAVEWESNGQPENNYKTTPPVLDSDGSFFLVSKLTVDKSRWQQGNVFSCSVMHEALHNHYTQKSLSLSPGK
light 2: DIQMTQSPSSLSASIGDRATITCRASQHVGTYLNWYQQKPGKTPKLLISGAANLQSGVPSRFSGSGSGTDFTLTISSLQPEDFATYYCQQSYNTPPFSFGQGTKVEIKRTVAAPSVFIFPPSDEQLKSGTASVVCLLNNFYPREAKVQWKVDNALQSGNSQESVTEQDSKDSTYSLSSTLTLSKADYEKHKVYACEVTHQGLSSPVTKSFNRGEC
modifications: compound 9-A on reduced cysteines, positions not given; compound 9-A (exatecan derivative linker-drug) on reduced cysteines, positions not given; target DAR 6 for the whole molecule
notes: target DAR 6; distribution of the drug over the chains not reported for ADC-2
On to B2, for which, in assay [3], the affinity, expressed as Kd, was 19.7 nM; the koff was determined as 0.0108 s⁻¹; the kon stood at 546000 M⁻¹ s⁻¹.

B3: Anti-HER3/MET bispecific antibody 5D5-A (bispecific antibody, human IgG1, kappa)
heavy 1: not shown
light 1: DIQMTQSPSSLSASVGDRVTITCKSSQSLLYTSSQKNYLAWYQQKPGKAPKLLIYWASTRESGVPSRFSGSGSGTDFTLTISSLQPEDFATYYCQQYYAYPWTFGQGTKVEIKGGGGSGIPPKIECLPIDISIDEGKVLTVASAFTGEPTPEVTWSTGGRKIHSQEQGRFHIENTDDSTTLTIKDVQKQDGGLYTLTLRNEFGSDSATVNIHIRSI
heavy 2: QVQLVQSGGGLVQPGRSLRLSCAASGFTFDDYAMHWVRQAPGKGLEWVSGISWNSGSIGYADSVKGRFTISRDNAKNSLYLQMNSLRAEDTALYYCAKEGLPGLDYWGQGTLVTVSSASTKGPSVFPLAPSSKSTSGGTAALGCLVKDYFPEPVTVSWNSGALTSGVHTFPAVLQSSGLYSLSSVVTVPSSSLGTQTYICNVNHKPSNTKVDKKVEPKSCDKTHTCPPCPAPELLGGPSVFLFPPKPKDTLMISRTPEVTCVVVDVSHEDPEVKFNWYVDGVEVHNAKTKPREEQYNSTYRVVSVLTVLHQDWLNGKEYKCKVSNKALPAPIEKTISKAKGQPREPQVCTLPPSREEMTKNQVSLSCAVKGFYPSDIAVEWESNGQPENNYKTTPPVLDSDGSFFLVSKLTVDKSRWQQGNVFSCSVMHEALHNHYTQKSLSLSPGK
light 2: DIQMTQSPSSLSASIGDRATITCRASQHVGTYLNWYQQKPGKTPKLLISGAANLQSGVPSRFSGSGSGTDFTLTISSLQPEDFATYYCQQSYNTPPFSFGQGTKVEIKRTVAAPSVFIFPPSDEQLKSGTASVVCLLNNFYPREAKVQWKVDNALQSGNSQESVTEQDSKDSTYSLSSTLTLSKADYEKHKVYACEVTHQGLSSPVTKSFNRGEC
As to B3, the “Minimum cell viability (%)” value in assay [1] came out at 20.5%. In assay [2], the binding result is listed as “binds”.

B4: Anti-HER3/MET bispecific antibody A9-A (bispecific antibody, human IgG1, kappa)
heavy 1: not shown
light 1: EIVLTQSPGTLSLSPGERATLSCRASQSVSNNYLAWYQQKPGQAPRLLIFGASSRATGIPDRFSGSGSGTDFTLTISRLEPEDFAVYYCQQYDISPMYSFGQGTKLEMKGGGGSGIPPKIECLPIDISIDEGKVLTVASAFTGEPTPEVTWSTGGRKIHSQEQGRFHIENTDDSTTLTIKDVQKQDGGLYTLTLRNEFGSDSATVNIHIRSI
heavy 2: QVQLVQSGGGLVQPGRSLRLSCAASGFTFDDYAMHWVRQAPGKGLEWVSGISWNSGSIGYADSVKGRFTISRDNAKNSLYLQMNSLRAEDTALYYCAKEGLPGLDYWGQGTLVTVSSASTKGPSVFPLAPSSKSTSGGTAALGCLVKDYFPEPVTVSWNSGALTSGVHTFPAVLQSSGLYSLSSVVTVPSSSLGTQTYICNVNHKPSNTKVDKKVEPKSCDKTHTCPPCPAPELLGGPSVFLFPPKPKDTLMISRTPEVTCVVVDVSHEDPEVKFNWYVDGVEVHNAKTKPREEQYNSTYRVVSVLTVLHQDWLNGKEYKCKVSNKALPAPIEKTISKAKGQPREPQVCTLPPSREEMTKNQVSLSCAVKGFYPSDIAVEWESNGQPENNYKTTPPVLDSDGSFFLVSKLTVDKSRWQQGNVFSCSVMHEALHNHYTQKSLSLSPGK
light 2: DIQMTQSPSSLSASIGDRATITCRASQHVGTYLNWYQQKPGKTPKLLISGAANLQSGVPSRFSGSGSGTDFTLTISSLQPEDFATYYCQQSYNTPPFSFGQGTKVEIKRTVAAPSVFIFPPSDEQLKSGTASVVCLLNNFYPREAKVQWKVDNALQSGNSQESVTEQDSKDSTYSLSSTLTLSKADYEKHKVYACEVTHQGLSSPVTKSFNRGEC
As for B4, the “Minimum cell viability (%)” value in assay [1] is 15.9%. For the same molecule, the binding result in assay [2] is reported as “binds”.

In general, Kd refers to the constant that tells how readily two partners part at equilibrium. The low end stands for a tighter complex, the high end for a looser complex. The koff is a measure of how fast the partners let go of each other. Low values mean slow dissociation, high ones fast dissociation. By kon is commonly meant a measure of how fast the partners come together. A high value points to faster complex formation.
